Tested on: phosphorylated oat phytochrome A
Experiment: Dephosphorylation of autophosphorylated oat phytochrome A by recombinant PP2AC-JD (SDS-PAGE, autoradiography)
Type: biochemical
Method: The oat phytochrome A was first autophosphorylated in the presence of γ[32P]ATP under the light conditions indicated. The recombinant PP2AC-JD protein was expressed via the pGEX-4T-1 expression vector in E. coli strain BL21 as a GST fusion, and the GST tag domain was cleaved out by thrombin digestion. (A) Cation requirements for the PP2AC-JD activity. One μg of the phosphorylated phytoclirome A was incubated with 0.2 μg of the recombinant PP2AC-JD for 30 minutes at room temperature, analysed on 12% SDS-PAGE, and subject to autoradiography. (B) Spectral form-dependent dephosphorylation of the phytochrome A. The Pfr form was a better substrate for the PP2AC-JD than the Pr form.
The enzymatic activity of the protein phosphatase encoded by said nucleic acid molecule can be assayed using a phosphorylated protein, preferentially autophosphorylated phytochromes. The reaction mixture is then analyzed on SDS-PAGE and visualized by autoradiography.
The PCR product containing the PP2AC-JD gene was double-digested with EcoRI and XhoI and incorporated into the pGEX-4T-1 E. coli expression vector, resulting in pG-PP2AC-JD. In this expression construct, the PP2AC-JD gene sequence was in frame fused to the glutathione S-transferase (GST) coding sequence at the N-terminus. The vector construct was transformed into E. coli strain BL21, and the transformants were selected with 100 μg/ml ampicillin. RB medium, rather than LB, was used for induction. Two hundred fifty ml of RB (0.5% yeast extract, 1% tryptone, 0.5% NaCl, 0.2% glucose, pH 7.5 with NaOH) supplemented with ampicillin (100 μg/ml) was inoculated with 3 ml of freshly grown cell culture and incubated at 20° C. with shaking at 250 rpm to an OD600 of 0.6. Expression was induced by adding IPTG (1 μM) and by further shaking at 20° C. for 5 hours. After centrifugation at 5000×g for 5 minutes, the cell pellet was washed in ice-cold 1×Phosphate-Buffered Saline (PBS, 140 mM NaCl, 2.7 mM KCI, 10 mM Na2HPO4, 1.8 mM KH2PO4, pH7.3). […]

B1: PP2AC-JD: recombinant catalytic subunit of a pea protein phosphatase 2A (SEQ ID NO: 2), expressed in E. coli BL21 (protein)
chain: MDLDQWISKVKDGQHLLEDELQLLCEYVKEILIEESNVQPVNSPVTVCGDIHGQFHDLMKLFQTGGHVPETNYIFMGDFVDRGYNSLDVFTILLLLKARYPANITLLRGNHESRQLTQVYGFYDECQRKYGNANATRYCTDVFDYLTLSAIIDGTVLCVHGGLSPDIRTIDQIRVIERNCEIPHEGPFCDLMWSDPEDIETWAVSPRGAGWLFGSRVTSEFNHINNLDLVCRAHQLVQEGLKYMFQDKGLVTVWSAPNYCYRCGNVASILSFNENMEREVKFFTETEENNQMRGPRTGVPYFL
- stimulatory effect of other cations on PP2AC-JD activity (cations other than Fe2+ or Zn2+): did not show any significant stimulatory effects
- dephosphorylation of phosphorylated oat phytochrome A (in the presence of Fe2+ or Zn2+, 1 μg phytochrome A, 0.2 μg PP2AC-JD, 30 minutes, room temperature): efficiently dephosphorylated
- dephosphorylation of Pfr phytochrome A compared with the Pr spectral form (phytochrome A autophosphorylated under different light conditions): more efficiently dephosphorylated

From patent US6586252B2, “Nucleic acid molecule encoding the catalytic subunit of a protein phosphatase 2A that regulates flowering time in plants” (Korea Kumho Petrochemical Co., Ltd., priority 2001, dated 2003)
